Test results from patent publication US20090291504A1.

Experiments:
[1] = biological target: Cre fragments alpha5 + beta1 (Casanova et al. 2003) (bacteriophage P1?) (UniProt P06956+P06956); experiment: cell_activity; settings: HEK293 GFP reporter
[2] = biological target: cCre (C-terminal half of Cre fused at its N-terminus to the C-peptide leucine zipper) (bacteriophage P1) (UniProt P06956); experiment: cell-based or functional assay
[3] = biological target: nlcCre (cCre with an extra SV40 large T antigen NLS) (Simian Virus 40; bacteriophage P1) (UniProt P06956); experiment: cell-based or functional assay
[4] = system: Cre fragment β1 (reported in Casanova et al., 2003)
[5] = biological target: T1, C-terminal Cre fragment identical to that in cCre, without leucine zipper peptide, P06956
T1 chain: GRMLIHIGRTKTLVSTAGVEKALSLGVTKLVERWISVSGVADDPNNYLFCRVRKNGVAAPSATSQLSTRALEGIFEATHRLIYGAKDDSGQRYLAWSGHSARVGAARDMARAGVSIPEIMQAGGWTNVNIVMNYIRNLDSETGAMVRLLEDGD

Work on “ATAACTTCGTATAATGTATGCTATACGAAGTTAT (double strand) [loxP]” yielded a Cre recombinase activity relative to intact Cre [1] of less than 2%.

Work on “nCre (N-terminal half of Cre with an N-terminal SV40 large T antigen NLS, fused at its C-terminus to the N-peptide leucine zipper) (from UniProt P06956 1-190) (enzyme)” yielded a recombinase activity of intact Cre molecule reconstituted (GFP/mCherry reporter, flow cytometry, co-transfected HEK293 cells) [2] of 12.1% and a Cre activity recovered (GFP/mCherry reporter, flow cytometry, co-transfected HEK293 cells) [3] of 27.2%.

“Cre fragment α5 (reported in Casanova et al., 2003)” was tested, and the “Cre activity recovered from fragments lacking protein interaction motifs (tissue culture)” value [4] was “less than 2% Cre activity was recovered”.

B1: N-terminal Cre fragment identical to that in nCre, without leucine zipper peptide (protein)
chain: MSNLLTVHQNLPALPVDATSDEVRKNLMDMFRDRQAFSEHTWKMLLSVCRSWAAWCKLNNRKWFPAEPEDVRDYLLYLQARGLAVKTIQQHLGQLNMLHRRSGLPRPSDSNAVSLVMRRIRKENVDAGERAKQALAFERTDFDQVRSLMENSDRCQDIRNLAFLGIAYNTLLRIAEIARIRVKDISRTDG
B1 was tested, and the “Cre activity generated by co-expression of fragments without interaction motifs (tissue culture)” value [5] was “less than 0.5% of Cre activity”.
